Experimental data published in article PMC10741561.

B1: WT-Sx4-GST (C-terminally GST-tagged Syntaxin 4 cytosolic domain) [not stated] / His-SNAP23 (N-terminally His-tagged SNAP23) [not stated] (parent)
chain 1: MRDRTHELRQGDNISDDEDEVRVALVVHSGAARLGSPDDEFFQKVQTIRQTMAKLESKVRELEKQQVTILATPLPEESMKQGLQNLREEIKQLGREVRAQLKAIEPQKEEADENYNSVNTRMKKTQHGVLSQQFVELINKCNSMQSEYREKNVERIRRQLKITNAGMVSDEELEQMLDSGQSEVFVSNILKDTQVTRQALNEISARHSEIQQLERSIRELHEIFTFLATEVEMQGEMINRIEKNILSSADYVERGQEHVKIALENQKKARKKKV
chain 2: MDNLSPEEVQLRAHQVTDESLESTRRILGLAIESQDAGIKTITMLDEQGEQLNRIEEGMDQINKDMREAEKTLTELNKCCGLCICPCNRTKNFESGKNYKATWGDGGDNSPSNVVSKQPSRITNGQPQQTTGAASGGYIKRITNDAREDEMEENLTQVGSILGNLKNMALDMGNEIDAQNQQIQKITEKADTNKNRIDIANTRAKKLIDS

Variants of: B1
Test: GST pull-down (glutathione sepharose), immunoblot, ImageJ quantification
Conditions: with His-SNAP23 (N-terminally His-tagged SNAP23); 30 min; 1–5 μg Sx4-GST variant on beads, excess His-SNAP23, 4 °C; read off a plot

Row | response (relative amount bound) | Variant
1 | 0.77 | chain 1 L173A E174A

Same assay, conditions: with His-SNAP23 (N-terminally His-tagged SNAP23); 60 min; 1–5 μg Sx4-GST variant on beads, excess His-SNAP23, 4 °C; read off a plot

Row | response (relative amount bound) | Variant
2 | 1.7 | chain 1 L173A E174A
